This test concerns the target T1, MST-Red-NLRP3 (UniProt Q96P20 1-1036, MST-Red label (position not given)).
T1 construct: NLRP3 labelled with MST-Red for microscale thermophoresis
The test can be described thus: MST; in solution; 50 nM MST-Red-NLRP3 titrated against increasing concentrations of IKKβ; two independent titrations. The settings on record: both partners purified.

T1 sequence (Q96P20 whole entry): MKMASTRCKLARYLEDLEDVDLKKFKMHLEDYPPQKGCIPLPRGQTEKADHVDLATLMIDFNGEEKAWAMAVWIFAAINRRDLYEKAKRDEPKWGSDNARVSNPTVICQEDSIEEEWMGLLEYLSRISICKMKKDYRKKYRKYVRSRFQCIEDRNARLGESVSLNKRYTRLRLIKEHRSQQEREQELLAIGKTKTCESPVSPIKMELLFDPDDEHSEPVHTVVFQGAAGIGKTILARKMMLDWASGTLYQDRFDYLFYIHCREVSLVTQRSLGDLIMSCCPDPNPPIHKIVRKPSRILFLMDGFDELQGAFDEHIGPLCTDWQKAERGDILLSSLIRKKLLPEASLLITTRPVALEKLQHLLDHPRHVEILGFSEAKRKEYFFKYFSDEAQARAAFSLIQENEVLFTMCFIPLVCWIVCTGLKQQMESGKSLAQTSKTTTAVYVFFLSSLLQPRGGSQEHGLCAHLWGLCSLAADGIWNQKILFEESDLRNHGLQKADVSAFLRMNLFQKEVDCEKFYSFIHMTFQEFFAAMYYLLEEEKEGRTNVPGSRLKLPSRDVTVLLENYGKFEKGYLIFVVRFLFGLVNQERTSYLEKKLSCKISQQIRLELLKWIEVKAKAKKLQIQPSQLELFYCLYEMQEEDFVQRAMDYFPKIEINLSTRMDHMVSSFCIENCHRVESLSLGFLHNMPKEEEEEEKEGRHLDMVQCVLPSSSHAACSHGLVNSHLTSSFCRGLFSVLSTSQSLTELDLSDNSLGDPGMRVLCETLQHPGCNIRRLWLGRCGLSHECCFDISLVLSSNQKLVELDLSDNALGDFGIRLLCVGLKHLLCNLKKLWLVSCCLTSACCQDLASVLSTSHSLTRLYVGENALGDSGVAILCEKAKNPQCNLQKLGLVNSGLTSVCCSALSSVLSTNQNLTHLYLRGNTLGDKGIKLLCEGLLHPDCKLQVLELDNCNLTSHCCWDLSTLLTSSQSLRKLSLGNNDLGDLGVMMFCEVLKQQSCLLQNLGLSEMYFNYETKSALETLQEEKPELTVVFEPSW

B1: IKKβ used for microscale thermophoresis (enzyme, UniProt O14920 1-756, looked up)
chain: MSWSPSLTTQTCGAWEMKERLGTGGFGNVIRWHNQETGEQIAIKQCRQELSPRNRERWCLEIQIMRRLTHPNVVAARDVPEGMQNLAPNDLPLLAMEYCQGGDLRKYLNQFENCCGLREGAILTLLSDIASALRYLHENRIIHRDLKPENIVLQQGEQRLIHKIIDLGYAKELDQGSLCTSFVGTLQYLAPELLEQQKYTVTVDYWSFGTLAFECITGFRPFLPNWQPVQWHSKVRQKSEVDIVVSEDLNGTVKFSSSLPYPNNLNSVLAERLEKWLQLMLMWHPRQRGTDPTYGPNGCFKALDDILNLKLVHILNMVTGTIHTYPVTEDESLQSLKARIQQDTGIPEEDQELLQEAGLALIPDKPATQCISDGKLNEGHTLDMDLVFLFDNSKITYETQISPRPQPESVSCILQEPKRNLAFFQLRKVWGQVWHSIQTLKEDCNRLQQGQRAAMMNLLRNNSCLSKMKNSMASMSQQLKAKLDFFKTSIQIDLEKYSEQTEFGITSDKLLLAWREMEQAVELCGRENEVKLLVERMMALQTDIVDLQRSPMGRKQGGTLDDLEEQARELYRRLREKPRDQRTEGDSQEMVRLLLQAIQSFEKKVRVIYTQLSKTVVCKQKALELLPKVEEVVSLMNEDEKTVVRLQEKRQKELWNLLKIACSKVRGPVSGSPDSMNASRLSQPGQLMSQPSTASNSLPEPAKKSEELVAEAHNLCTLLENAIQDTVREQDQSFTALDWSWLQTEEEEHSCLEQAS
notes: IKKβ titrated in MST
By Kd is commonly meant the concentration at which binding is half-saturated. The low end stands for a tighter complex, the high end for a looser complex. B1: binding was put at a Kd of 1430 ± 350 nM.
